Measured values: patent US10800847

Experiments:
[1] = biological target: HLA-B*4006 (B61) single antigen on Luminex beads (human); test: Luminex single antigen, regular beads (#7), IVIg 1:8
[2] = biological target: HLA-B*3701 (B37) single antigen on Luminex beads (human); test: as above
[3] = biological target: HLA-B*4701 (B47) single antigen on Luminex beads (human); test: as above
[4] = biological target: HLA-B*2705 (B27) single antigen on Luminex beads (human); test: as above
[5] = biological target: HLA-B*4403 (B44) single antigen on Luminex beads (human); test: as above
[6] = biological target: HLA-B*4501 (B45) single antigen on Luminex beads (human); test: as above
[7] = biological target: HLA-B*3901 (B39) single antigen on Luminex beads (human); test: as above
[8] = biological target: HLA-B*4201 (B42) single antigen on Luminex beads (human); test: as above
[9] = biological target: HLA-B*4001 (B60) single antigen on Luminex beads (human); test: as above
[10] = biological target: HLA-B*4601 (B46) single antigen on Luminex beads (human); test: as above
[11] = biological target: HLA-B*3801 (B38) single antigen on Luminex beads (human); test: as above
[12] = biological target: HLA-B*3501 (B35) single antigen on Luminex beads (human); test: as above
[13] = biological target: HLA-B*4006 (B61) single antigen on Luminex beads (human); test: Luminex single antigen, iBead vs regular bead, IVIg 1:8
[14] = biological target: HLA-B*3701 (B37) single antigen on Luminex beads (human); test: as above
[15] = biological target: HLA-B*4402 (B44) single antigen on Luminex beads (human); test: as above
[16] = biological target: HLA-B*4701 (B47) single antigen on Luminex beads (human); test: as above
[17] = biological target: HLA-B*2705 (B27) single antigen on Luminex beads (human); test: as above
[18] = biological target: HLA-B*2708 (B27) single antigen on Luminex beads (human); test: as above
[19] = biological target: HLA-B*4501 (B45) single antigen on Luminex beads (human); test: as above
[20] = biological target: HLA-B*4201 (B42) single antigen on Luminex beads (human); test: as above
[21] = biological target: HLA-B*4601 (B46) single antigen on Luminex beads (human); test: as above
[22] = biological target: HLA-B*3501 (B35) single antigen on Luminex beads (human); test: as above
[23] = biological target: HLA-A*0301 (A3) on single antigen beads (human) (UniProt P04439); test: Luminex, iBead MFI against regular bead MFI, 1:8
[24] = biological target: HLA-A*0301 (A3) on single antigen beads (human) (UniProt P04439); test: Luminex single antigen beads, iBeads (#6), 1:8
[25] = biological target: Albumin on negative control beads (serum albumin, HSA/BSA) (human or bovine); test: Luminex single antigen beads, iBeads (#6), 1:8
[26] = biological target: HLA-B*4002 (B61) single antigen on Luminex beads (human); test: Luminex single antigen, iBeads (#6), IVIg 1:8
[27] = biological target: HLA-B*4101 (B41) single antigen on Luminex beads (human); test: Luminex single antigen, iBeads (#6), IVIg 1:8
[28] = biological target: HLA-B*4006 (B61) single antigen on Luminex beads (human); test: Luminex single antigen, iBeads (#6), IVIg 1:8
[29] = biological target: HLA-B*3701 (B37) single antigen on Luminex beads (human); test: Luminex single antigen, iBeads (#6), IVIg 1:8
[30] = biological target: HLA-B*4402 (B44) single antigen on Luminex beads (human); test: Luminex single antigen, iBeads (#6), IVIg 1:8
[31] = biological target: HLA-B*4701 (B47) single antigen on Luminex beads (human); test: Luminex single antigen, iBeads (#6), IVIg 1:8
[32] = biological target: HLA-B*2705 (B27) single antigen on Luminex beads (human); test: Luminex single antigen, iBeads (#6), IVIg 1:8
[33] = biological target: HLA-B*2708 (B27) single antigen on Luminex beads (human); test: Luminex single antigen, iBeads (#6), IVIg 1:8
[34] = biological target: HLA-B*4403 (B44) single antigen on Luminex beads (human); test: Luminex single antigen, iBeads (#6), IVIg 1:8
[35] = biological target: HLA-B*4501 (B45) single antigen on Luminex beads (human); test: Luminex single antigen, iBeads (#6), IVIg 1:8
[36] = biological target: HLA-B*3901 (B39) single antigen on Luminex beads (human); test: Luminex single antigen, iBeads (#6), IVIg 1:8
[37] = biological target: HLA-B*4201 (B42) single antigen on Luminex beads (human); test: Luminex single antigen, iBeads (#6), IVIg 1:8
[38] = biological target: HLA-B*4001 (B60) single antigen on Luminex beads (human); test: Luminex single antigen, iBeads (#6), IVIg 1:8
[39] = biological target: HLA-B*3801 (B38) single antigen on Luminex beads (human); test: Luminex single antigen, iBeads (#6), IVIg 1:8
[40] = biological target: HLA-B*3501 (B35) single antigen on Luminex beads (human); test: Luminex single antigen, iBeads (#6), IVIg 1:8
[41] = biological target: Albumin on negative control beads (serum albumin, HSA/BSA) (human or bovine); test: Luminex single antigen beads, regular beads (#7), 1:8
[42] = biological target: HLA-A*6901 (A69) single antigen on Luminex beads (human); test: Luminex single antigen bead assay, regular beads (#7), IVIg 1:8
[43] = biological target: HLA-A*7401 (A74) single antigen on Luminex beads (human); test: as above
[44] = biological target: HLA-A*8001 (A80) single antigen on Luminex beads (human); test: as above
[45] = biological target: HLA-A*6802 (A68) single antigen on Luminex beads (human); test: as above
[46] = biological target: HLA-A*6901 (A69) single antigen on Luminex beads (human); test: Luminex single antigen bead assay, iBeads vs regular beads, IVIg 1:8
[47] = biological target: HLA-A*7401 (A74) single antigen on Luminex beads (human); test: as above
[48] = biological target: HLA-A*8001 (A80) single antigen on Luminex beads (human); test: as above
[49] = biological target: HLA-A*6802 (A68) single antigen on Luminex beads (human); test: as above
[50] = biological target: HLA-A*6901 (A69) single antigen on Luminex beads (human); test: Luminex single antigen bead assay, iBeads (#6), IVIg 1:8
[51] = biological target: HLA-A*7401 (A74) single antigen on Luminex beads (human); test: as above
[52] = biological target: HLA-A*8001 (A80) single antigen on Luminex beads (human); test: as above
[53] = biological target: HLA-A*6802 (A68) single antigen on Luminex beads (human); test: as above

GamaSTAN S/D (IVIg, Talecris Biotherapeutics, Inc., USA) (antibody)
MFI [1]: 3470 MFI | MFI [2]: 3240 MFI | MFI [3]: 1770 MFI | MFI [4]: 1370 MFI | MFI [5]: 3390 MFI | MFI [6]: 3670 MFI | MFI [7]: 0 MFI | MFI [8]: 598 MFI | MFI [9]: 1720 MFI | MFI [10]: 1830 MFI | MFI [11]: 619 MFI | MFI [12]: 680 MFI | Difference % (iBead against regular bead MFI) [13]: -32% | Difference % (iBead against regular bead MFI) [14]: -88% | Difference % (iBead against regular bead MFI) [15]: -22% | Difference % (iBead against regular bead MFI) [16]: 81% | Difference % (iBead against regular bead MFI) [17]: -21% | Difference % (iBead against regular bead MFI) [18]: 32% | Difference % (iBead against regular bead MFI) [19]: 47% | Difference % (iBead against regular bead MFI) [20]: -52% | Difference % (iBead against regular bead MFI) [21]: -20% | Difference % (iBead against regular bead MFI) [22]: -4% | Difference % (iBead against regular bead) [23]: -100% | MFI [24]: 0 MFI | MFI [25]: 5030 MFI | MFI [26]: 1190 MFI | MFI [27]: 870 MFI | MFI [28]: 2370 MFI | MFI [29]: 392 MFI | MFI [30]: 3380 MFI | MFI [31]: 3210 MFI | MFI [32]: 1080 MFI | MFI [33]: 1410 MFI | MFI [34]: 2900 MFI | MFI [35]: 5400 MFI | MFI [36]: 0 MFI | MFI [37]: 286 MFI | MFI [38]: 2290 MFI | MFI [39]: 0 MFI | MFI [40]: 653 MFI | MFI [41]: 3790 MFI

IVIg GamaSTAN S/D (Talecris Biotherapeutics, Inc., USA) (antibody)
MFI [42]: 1880 MFI | MFI [43]: 80 MFI | MFI [44]: 2700 MFI | MFI [45]: 2060 MFI | Difference % (iBead MFI against regular bead MFI) [46]: 28% | Difference % (iBead MFI against regular bead MFI) [47]: 437% | Difference % (iBead MFI against regular bead MFI) [48]: 5% | Difference % (iBead MFI against regular bead MFI) [49]: 1% | MFI [50]: 2410 MFI | MFI [51]: 431 MFI | MFI [52]: 2850 MFI | MFI [53]: 2080 MFI
